Source: patent US20240368230, “CELL-PENETRATING PEPTIDES COMPRISING MULTIPLE 5-MER ALPHA-HELIX FRAGMENTS AND USES […]” (ArtProBio Co., Ltd., published 2024)

Target: Tat peptide (47-57) (Human immunodeficiency virus 1)
Assay: EMSA; non-cognate RNA; higher affinity than CPP11; 10 mM potassium phosphate pH 7.5, 100 mM NaCl
Settings: protein: synthetic; tags: chemically synthesized peptide; stem-loop

Does GGACCUGGUAUGGGCGCAGCGCAAGCUGACGGUACAGGCCAGGUCC (ssRNA) [wild-type RRE IIB RNA] bind?
Result: binds
